From the supplement of paper PMC10567573
± gives the standard deviation.

Assay: protein stability index of a GFP-peptide fusion (GPS, HEK-293T) (PSI 1-6); higher = more stable
[1] = treatment: DMSO, c terminus: a fixed tail appended
[2] = treatment: MLN4924 1 uM, 8 h, c terminus: a fixed tail appended
[3] = treatment: DMSO, c terminus: native
[4] = treatment: MLN4924 1 uM, 8 h, c terminus: native
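Note: 24-mer peptide tiles fused after GFP, lentivirally expressed, FACS-sorted into six equal bins by GFP/DsRed ratio, decoded by Illumina sequencing, PSI is the read-weighted mean bin number.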

Sequence	protein stability index [1]	protein stability index [2]	protein stability index [3]	protein stability index [4]
RDVPESPQHAADTPKSGEPRVPEE [YJU2B]	5.44 ± 0.19	5.53 ± 0.24		
FPYVVLACFLVRGLLLRGAVDGIL [SLC6A17]	2.8 ± 0.65	3.12 ± 1.1		
PAAMGPPGAPPGRDLASVPPELTA [DVL3]	4.88 ± 0.29	4.89 ± 0.075		
ATEQAATQESTFQELCEGLLEESD [NOP53]	5.61 ± 0.19	5.58 ± 0.12		
VKSIVVKGYNIWTGGPDACLRCWD [TLE6]	2.37 ± 0.3	2.24 ± 0.43		
EEGTSDSNTGSESNSATVEEPPTD [SMARCE1]	5.36 ± 0.44	5.67 ± 0.2		
TKLPENQAIQMRLVDVACKHLTDT [INTS4]	3.41 ± 0.11	3.58 ± 0.069		
KHSVLLSASRKSAEQLRIELNAEK [WEE1]	3.92 ± 0.32	4.16 ± 0.21		
FDKKDRRALHWAAYMGHLDVVALL [ANKRD44]	2.61 ± 0.82	2.24 ± 0.22		
LKQRTVIEMFKSITHSTVGSKGEK [EHMT1]	3.16 ± 0.18	3.17 ± 0.33		
SRAPQLHLEYRFYKQLGSAGEGLP [CSNK1G1]	2.73 ± 0.44	2.84 ± 0.19		
KELVEFAQDDDRLREERKKAKKNK [CLINT1]	5.49 ± 0.096	5.53 ± 0.17		
MQALEIELQSQLSMKASLEGNLAE [KRT17]	3.59 ± 0.19	3.45 ± 0.42		
RSEAVAQLWGQKKKNSNMTYEKLS [ELF3]	3.52 ± 0.21	3.8 ± 0.18		
LSPPEQAAQPMQPLPESLASLHPS [PLAGL1]	5.12 ± 0.16	4.93 ± 0.31		
MNELQHDLDVVSDALAKVSRKPSI [TPH1]	4.27 ± 0.22	4.42 ± 0.32		
QAIEPQAIVQQVPAPSRMQMPQGN [SNX8]	4.64 ± 0.25	4.75 ± 0.22		
VDSHHEYPAMTFYSPAVMNYSIPS [ESR2]	2.8 ± 0.18	2.89 ± 0.24		
SNVQEVRCPVTVCGDVHGQFHDLM [PPP2CA]	3.54 ± 0.41	3.49 ± 0.31		
GSACSLLCCCGRDPSEEHSLLVN [MCOLN1]			2.3 ± 0.39	2.27 ± 0.38
KEEAGAPGGGAGMAAGFPYALRAY [CEBPB]	3.06 ± 0.13	3.31 ± 0.15		
PSSLNSPSSYNCSQSILPLEHGSI [ESR2]	3.15 ± 0.31	3.13 ± 0.12		
KWLPQQNAAHSLLSTNDKTIKLWK [PPP2R2C]	2.88 ± 0.096	3.09 ± 0.32		

Sequence	protein stability index [1]	protein stability index [2]	protein stability index [3]	protein stability index [4]
VREIVKECSNIPLSQPQQGEAMLA [GAN]	4.28 ± 0.37	4.31 ± 0.36		
SAGNRTHKARTRPKARKQGVSPAD [ADAMTSL2]	4.75 ± 0.94	5.07 ± 0.8		
VDEAAAESPSFLSLRKGASLSNGQ [NCK2]	4.83 ± 0.14	5.08 ± 0.23		
WRWTGFNFGFDLLVTYTNRYIIFK [GMCL1]	2.63 ± 0.58	3.02 ± 0.45		
TLGYMPTEMELLEVSQHIKMRMGG [CABP4]	2.96 ± 0.18	2.94 ± 0.54		
NDVRQAARSAASYMLFDPKDSVMQ [P3H4]	3.97 ± 0.12	4.08 ± 0.39		
DSDKLSGLWSRISHLVLPVQPVSS [TOR1AIP2]	2.3 ± 0.24	2.32 ± 0.21		
IWTAHYDPGHCFAESRELPVRCAG [ALG2]	2.38 ± 0.32	2.4 ± 0.24		
SLGQDLRRLRQELLKTEALKRQAQ [DAPK3]	3.09 ± 0.59	2.96 ± 0.14		
WFESVLEPGYIDSEIGTSDQIVPE [TRIB1]	4.44 ± 0.2	4.09 ± 0.18		
FQQLMVETCSCGYYLHPLPAGAEY [SCNN1D]	2.6 ± 0.69	2.8 ± 0.69		
SELQAYIAQCQDSPTSGKFRRGSG [MCOLN1]	4.21 ± 0.075	4.31 ± 0.15		
EDYPAALPNHKPKGTFKDYVRDRA [ETS1]	4.57 ± 0.1	4.62 ± 0.32		
AIEHFQPNADLLFSDPSQSDPETK [FCHO1]	5.5 ± 0.074	5.44 ± 0.25		
SFVVARYFPAGNVVNEGFFEENVL [GLIPR2]	2.11 ± 0.55	2.33 ± 0.24		
SKMDQLAKELTAEKRLEGQEEEED [CHGA]	5.54 ± 0.34	5.42 ± 0.36		
ECGKAFSQNSSLVQHERIHTGDKP [ZNF8]	4.49 ± 0.33	4.48 ± 0.15		
IQFWNSRQSLEGLSVRSVFFGVFQ [CLPTM1]	2.65 ± 0.46	2.79 ± 0.91		
AAQSTKSPWNFLGDELYEQSDEEQ [CLPTM1]	5.25 ± 0.19	5.35 ± 0.18		
EILDYIFSGQIRLNEDTIQDVVQA [GAN]	2.67 ± 0.55	2.23 ± 0.34		
SFACQCPEGHVLRSDGKTCAKLDS [MATN2]	4.41 ± 0.39	4.88 ± 0.27		
EQREWVLKSSILIAMAVYTYLRLI [INTS3]	2.6 ± 0.59	2.59 ± 0.45		
EDTHVQIGQVHEEFKQNIENVSVE [FCHO1]	5.48 ± 0.27	5.49 ± 0.21		

Sequence	protein stability index [1]	protein stability index [2]	protein stability index [3]	protein stability index [4]
ESKLLGSNSSRMYFTQTLLPGLAG [MLH1]	3.12 ± 0.24	3.12 ± 0.5		
VSSQRFKSSVYRRYNDFVVFQEML [SNX8]	2.1 ± 0.21	2.21 ± 0.39		
DHEDFTGSSSLGFTSSPSPFSSSS [FCHO1]	4.45 ± 0.15	4.37 ± 0.14		
FPDLLLTKRDSFLKRLYRAPIDWI [ALG2]	2.27 ± 0.29	2.64 ± 0.52		
VLVEKYGWPHEDAAQFTDFLIPML [SRPK2]	2.38 ± 0.26	2.4 ± 0.26		
TLEKCEKVKTMEVTSVSIELEKNF [TRIM39]	4.16 ± 0.21	4.15 ± 0.23		
RIRSQIGNTESELKKLAEENPDLQ [GDAP1]	5.42 ± 0.18	5.39 ± 0.12		
PASSRNRSPSGSLRSARGSRGGTR [RBMY1A1]	5.14 ± 0.37	5.25 ± 0.24		
EQRADPNAKAHCGATALHFAAEAG [FEM1B]	4.03 ± 0.18	3.98 ± 0.34		
PVEDSHTADISSHFQEAIDFIDCV [DUSP5]	4.54 ± 0.21	4.44 ± 0.32		
PEKQKRKPGLRRSPIKKVRKSLAL [MYBL2]	3.97 ± 0.2	3.83 ± 0.075		
WQLYYSKKLLDSWFTSTQEKKHK [JAGN1]			2.28 ± 0.49	2.7 ± 0.29
LKYIGMAKREINKLLKQKEKKNE [ARL6IP1]			3.7 ± 0.17	3.83 ± 0.31
SASPIKDQPVMAVKTGEDGSNLDD [FANCE]	5.66 ± 0.27	5.56 ± 0.2		
DHRGRMVKHQCCPGCGYFCTAGNF [EHMT1]	2.79 ± 0.14	3.14 ± 0.17		
LMSLQNQLKESKSKIDALSSEKLN [CEP70]	4.13 ± 0.15	4.05 ± 0.19		
EHGEKIYFFCENDAEFLCVFCREG [TRIM15]	2.36 ± 0.082	2.53 ± 0.42		
LQARERGEEQVELSTIEELIKDAI [C2CD2L]	4.14 ± 0.084	4.13 ± 0.19		
GTGGEEVEALQLSARWLEVLRTYL [FBXO33]	2.41 ± 0.23	2.32 ± 0.31		
YLRSKLCSLYENDCIFDKFECAWN [PPP2R2C]	2.81 ± 0.57	2.61 ± 0.66		
CFIQSSHLIRHQITHTREEQPHGR [ZNF8]	3.4 ± 0.12	3.37 ± 0.23		
AIAKQALKKPIKGKQAPRKKAQGK [KMT5A]		4.02 ± 0.17		
YEGGHIKGAVNLHMEEEVEDFLLK [CDC25A]	4.6 ± 0.42	4.51 ± 0.076		

Sequence	protein stability index [1]	protein stability index [2]	protein stability index [3]	protein stability index [4]
PPGHHAEQDAACGFCFFNSVAVAA [HDAC6]	2.88 ± 0.51	2.96 ± 0.68		
EMLAAACQMFLGKTEAEIAHIALE [FLOT1]	3.15 ± 0.81	2.78 ± 0.34		
DDDFSIHAAHVVCRELGYVEAKSW [LOXL2]	2.72 ± 0.24	2.83 ± 0.33		
QLATSSFLLFLLTGIVSVAFLLLP [MOSPD3]	3.5 ± 0.19	2.88 ± 0.54		
RLNFQTPGMASHPPIPILELADHI [PTPRD]	3.23 ± 0.2	3.08 ± 0.087		
ETYHQQGQCQVLVQRSPWLMMRMG [TCAP]	2.18 ± 0.22	2.23 ± 0.35		
WAGFMVLLMIPWGSAAKLVCYFTN [CHIT1]	2.69 ± 0.069	2.11 ± 0.13		
QPIRGVEGSDYINASFIDGYRQQK [PTPRD]	4.31 ± 0.27	4.37 ± 0.19		
KPSGALGSESYKSSAGSAEQTAPG [EHMT1]	5.26 ± 0.39	5.43 ± 0.22		
SSMLTGILWDTLLRLCAWGLASWP [POMT2]	3.12 ± 0.62	2.66 ± 0.61		
DETFLATSFLQHPWDESGSGCLPP [FOXJ1]	4.15 ± 0.16	4.11 ± 0.079		
VWDMRSGQCVQAFETHESDINSVR [GNB5]	3.48 ± 0.24	3.56 ± 0.15		
RQPRDELERVRVSCTIIFLASIFQ [TMEM175]	2.11 ± 0.15	2.17 ± 0.28		
TTKCVRQYEGHVNEYAYLPLHVHE [DCAF4]	2.92 ± 0.39	3.17 ± 0.2		
VEYFQQSAVAMYMLYEKQKQQNVA [ZBED1]	2.4 ± 0.18	2.14 ± 0.28		
HYIAGAHGNEVLGRELLLLLVQFV [CPXM2]	2 ± 0.075	2.22 ± 0.37		
FSTVWLCWDMQGKRFVAMKVVKSA [SRPK2]	2.46 ± 0.63	2.46 ± 0.28		
PDTQLLKFQLNKYTGEIKISENLD [PCDHGA10]	3.43 ± 0.44	3.66 ± 0.17		
LEKVLEENAQKKRFNQVLKNLLHA [VPS39]	2.85 ± 0.22	2.98 ± 0.23		
EEEEEEEEAEAGEEAVPEEEGPTV [CHGA]	5.34 ± 0.25	5.4 ± 0.25		
